Measurements from publication PMC2929661.
Several values for one entry are separate records, joined by “and”; a condition that tells them apart may be missing. Identical values can stand only once. Like-named read-outs stand apart in the source and are kept apart here. Blank lines part the entries; values can stand above or below the molecule they belong to.

Experiments:
Assay in all cases: SPR
[1] = biological target: Human angiostatin kringles 1–5 (K1–5) (human)
[2] = biological target: Human angiostatin kringles 1–5 (K1–5) (human); remark: listed apart in the source
[3] = biological target: Recombinant yeast F1-ATPase (F1-ATP synthase protein complex) (yeast) (UniProt P07251)
[4] = biological target: Recombinant yeast F1-ATPase (F1-ATP synthase protein complex) (yeast) (UniProt P07251); remark: listed apart in the source

Kd [1]: 130 to 237 nM | Ka [2]: 6.5e+06 M⁻¹ and 5.1e+06 M⁻¹ | Kd [2]: 154 nM and 137 nM and 195 nM | koff [2]: 0.0002 s⁻¹ and 0.00019 s⁻¹ | kon [2]: 1300 M⁻¹ s⁻¹ and 960 M⁻¹ s⁻¹
Molecule: Recombinant yeast F1-ATPase (F1-ATP synthase protein complex) (from UniProt P07251 36-545; P00830 34-511; P38077 34-311)

IC50 [3]: 17.3 nM | IC50 [4]: 11.8 nM
B1: Pigment epithelium-derived factor (PEDF), human recombinant (ligand)
chain: QNPASPPEEGSPDPDSTGALVEEEDPFFKVPVNKLAAAVSNFGYDLYRVRSSTSPTTNVLLSPLSVATALSALSLGAEQRTESIIHRALYYDLISSPDIHGTYKELLDTVTAPQKNLKSASRIVFEKKLRIKSSFVAPLEKSYGTRPRVLTGNPRLDLQEINNWVQAQMKGKLARSTKEIPDEISILLLGVAHFKGQWVTKFDSRKTSLEDFYLDEERTVRVPMMSDPKAVLRYGLDSDLSCKIAQLPLTGSMSIIFFLPLKVTQNLTLIEESLTSEFIHDIDRELKTVQAVLTVPKLKLSYEGEVTKSLQEMKLQSLFDSPDFSKITGKPIKLTQVEHRAGFEWNEDGAGTTPSPGLQPAHLTFPLDYHLNQPFIFVLRDTDTGALLFIGKILDPRGP
